Data: article PMC7261166

Experiments:
Experiment in all cases: fluorescence anisotropy
EWSR1 = EWSR1 (UniProt Q01844 1-656)
SA1 (STAG1) = biological target: T1, SA1 (STAG1) (UniProt Q8WVM7 1-1258)
T1 sequence: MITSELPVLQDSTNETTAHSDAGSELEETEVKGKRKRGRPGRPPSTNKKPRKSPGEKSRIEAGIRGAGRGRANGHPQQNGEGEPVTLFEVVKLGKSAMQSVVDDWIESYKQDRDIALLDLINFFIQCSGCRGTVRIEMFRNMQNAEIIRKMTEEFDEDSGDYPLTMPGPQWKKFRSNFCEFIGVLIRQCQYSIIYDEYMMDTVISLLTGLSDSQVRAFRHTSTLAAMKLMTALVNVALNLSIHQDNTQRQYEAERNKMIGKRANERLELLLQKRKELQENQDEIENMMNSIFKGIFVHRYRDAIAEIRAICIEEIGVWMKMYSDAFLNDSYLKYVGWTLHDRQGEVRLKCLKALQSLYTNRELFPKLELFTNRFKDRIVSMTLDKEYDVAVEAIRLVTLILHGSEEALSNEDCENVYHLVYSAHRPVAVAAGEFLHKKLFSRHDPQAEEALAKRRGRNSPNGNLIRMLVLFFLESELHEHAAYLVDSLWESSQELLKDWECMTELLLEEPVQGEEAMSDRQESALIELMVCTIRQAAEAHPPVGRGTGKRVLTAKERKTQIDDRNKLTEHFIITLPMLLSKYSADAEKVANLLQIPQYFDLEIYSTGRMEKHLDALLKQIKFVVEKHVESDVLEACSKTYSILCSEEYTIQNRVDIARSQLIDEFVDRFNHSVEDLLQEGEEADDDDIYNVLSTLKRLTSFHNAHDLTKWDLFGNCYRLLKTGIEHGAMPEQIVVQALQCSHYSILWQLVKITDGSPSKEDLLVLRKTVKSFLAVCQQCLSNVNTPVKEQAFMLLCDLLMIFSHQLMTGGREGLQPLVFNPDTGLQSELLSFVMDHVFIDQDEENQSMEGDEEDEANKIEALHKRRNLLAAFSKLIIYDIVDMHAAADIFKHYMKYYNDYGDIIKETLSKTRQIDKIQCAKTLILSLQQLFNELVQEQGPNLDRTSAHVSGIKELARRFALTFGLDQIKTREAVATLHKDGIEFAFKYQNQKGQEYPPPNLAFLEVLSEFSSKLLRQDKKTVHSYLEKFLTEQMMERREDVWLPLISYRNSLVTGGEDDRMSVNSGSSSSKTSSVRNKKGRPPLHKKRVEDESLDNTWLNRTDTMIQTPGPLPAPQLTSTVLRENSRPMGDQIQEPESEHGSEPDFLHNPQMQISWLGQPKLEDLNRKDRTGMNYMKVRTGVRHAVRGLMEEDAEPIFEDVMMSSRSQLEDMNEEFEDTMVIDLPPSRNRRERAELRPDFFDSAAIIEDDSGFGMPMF

SA2 (STAG2) = biological target: T2, SA2 (STAG2) (UniProt Q8N3U4 1-1231)
T2 sequence: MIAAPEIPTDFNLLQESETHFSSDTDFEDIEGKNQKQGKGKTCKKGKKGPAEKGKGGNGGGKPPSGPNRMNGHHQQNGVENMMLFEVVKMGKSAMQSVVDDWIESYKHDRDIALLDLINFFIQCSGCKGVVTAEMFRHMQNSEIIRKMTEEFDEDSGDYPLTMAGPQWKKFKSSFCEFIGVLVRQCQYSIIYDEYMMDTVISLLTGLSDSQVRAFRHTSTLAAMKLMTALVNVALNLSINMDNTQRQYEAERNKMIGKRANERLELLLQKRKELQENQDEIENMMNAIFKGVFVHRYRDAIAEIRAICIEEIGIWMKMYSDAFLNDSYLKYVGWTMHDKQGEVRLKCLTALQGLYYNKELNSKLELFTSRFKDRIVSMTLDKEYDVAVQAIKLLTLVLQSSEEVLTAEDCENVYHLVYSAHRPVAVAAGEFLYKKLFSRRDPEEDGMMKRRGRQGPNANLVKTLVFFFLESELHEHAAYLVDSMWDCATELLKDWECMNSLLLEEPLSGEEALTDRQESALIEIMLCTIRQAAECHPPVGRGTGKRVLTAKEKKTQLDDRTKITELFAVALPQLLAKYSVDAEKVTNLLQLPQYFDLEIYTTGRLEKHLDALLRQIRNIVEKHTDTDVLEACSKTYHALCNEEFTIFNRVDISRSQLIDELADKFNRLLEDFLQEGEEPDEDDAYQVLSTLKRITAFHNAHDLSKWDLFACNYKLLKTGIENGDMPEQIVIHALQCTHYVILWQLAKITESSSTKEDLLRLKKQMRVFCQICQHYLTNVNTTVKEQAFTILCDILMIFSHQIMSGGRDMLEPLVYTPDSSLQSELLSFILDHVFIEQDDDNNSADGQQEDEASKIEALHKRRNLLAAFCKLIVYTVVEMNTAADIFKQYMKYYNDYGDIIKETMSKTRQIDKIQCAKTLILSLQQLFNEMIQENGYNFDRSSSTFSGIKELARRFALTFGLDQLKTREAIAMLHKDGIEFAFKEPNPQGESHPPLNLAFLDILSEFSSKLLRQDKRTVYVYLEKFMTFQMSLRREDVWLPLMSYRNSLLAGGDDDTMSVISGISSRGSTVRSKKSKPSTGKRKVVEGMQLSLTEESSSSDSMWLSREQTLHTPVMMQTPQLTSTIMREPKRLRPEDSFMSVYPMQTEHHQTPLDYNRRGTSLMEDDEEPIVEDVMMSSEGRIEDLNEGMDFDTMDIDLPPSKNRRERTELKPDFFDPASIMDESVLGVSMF

EWSR1, sequence (Q01844 whole entry): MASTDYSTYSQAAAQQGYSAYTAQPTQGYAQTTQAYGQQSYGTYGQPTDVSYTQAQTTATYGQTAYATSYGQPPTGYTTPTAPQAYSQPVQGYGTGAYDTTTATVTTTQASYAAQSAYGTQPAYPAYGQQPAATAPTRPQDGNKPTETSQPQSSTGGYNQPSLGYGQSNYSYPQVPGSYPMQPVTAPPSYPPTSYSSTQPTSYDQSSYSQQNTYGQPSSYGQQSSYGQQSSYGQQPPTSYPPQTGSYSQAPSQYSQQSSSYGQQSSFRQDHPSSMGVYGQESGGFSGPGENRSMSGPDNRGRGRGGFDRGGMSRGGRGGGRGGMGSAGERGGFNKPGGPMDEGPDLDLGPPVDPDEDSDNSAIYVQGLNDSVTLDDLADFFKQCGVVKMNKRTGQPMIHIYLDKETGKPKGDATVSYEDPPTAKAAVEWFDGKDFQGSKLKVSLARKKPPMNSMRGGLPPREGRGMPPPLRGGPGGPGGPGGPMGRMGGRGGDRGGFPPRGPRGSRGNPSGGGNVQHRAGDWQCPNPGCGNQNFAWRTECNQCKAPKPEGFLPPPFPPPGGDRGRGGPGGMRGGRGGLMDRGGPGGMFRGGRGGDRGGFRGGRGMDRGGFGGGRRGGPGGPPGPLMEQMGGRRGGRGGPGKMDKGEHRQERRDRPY

| Binder | Kd (EWSR1) [nM] | Kd (SA1 (STAG1)) [nM] | Kd (SA2 (STAG2)) [nM] |
| --- | --- | --- | --- |
| GCAGCUGGCACGACAGGUAUGAAUC (ssRNA) [25 nt RNA (R-loop oligo)] | 134.2 ± 0.04 | 164 ± 37.4 | 251 ± 3.2 |
| RNA:DNA hybrid (25 bp) (DNA:RNA) RNA: GCAGCUGGCACGACAGGUAUGAAUC DNA: GATTCATACCTGTCGTGCCAGCTGC |  | 58.6 ± 1.5 | 43.3 ± 5.6 |
| RNA:DNA hybrid (45 bp) (DNA:RNA) RNA: CUGGAUCCGUACAGUGUAAGGGUGAGUGGUUGGGUGUGUGGGUGU DNA: ACACCCACACACCCAACCACTCACCCTTACACTGTACGGATCCAG | 27.7 ± 4.1 | 44 ± 5.9 | 31.7 ± 1.5 |
| Model R-loop (mixed) RNA: GCAGCUGGCACGACAGGUAUGAAUC DNA 1: GCCAGGGACGAGGTGAACCTGCAGGTGGGCGGCTACTACTTAGATGTCATCCGAGGCTTATTGGTAGAATTCGGCAGCGTCATGCGACGGC DNA 2: GCCGTCGCATGACGCTGCCGAATTCTACCACGCGATTCATACCTGTCGTGCCAGCTGCTTTGCCCACCTGCAGGTTCACCTCGTCCCTGGC | 28.6 ± 0.8 | 38.4 ± 8.7 | 36 ± 4 |
| CUGGAUCCGUACAGUGUAAGGGUGAGUGGUUGGGUGUGUGGGUGU (ssRNA) [45 nt RNA] |  | 6 ± 0.6 | 11.4 ± 1.2 |
| 66 nt RNA-1 (ssRNA) RNA: CUGGAUCCGUACAGUGUAAGGGUGAGUGGUUGGGUGUGUGGGUGUUGAUGUAGAACAAGAAUUCGA | 35.1 ± 1.8 | 3.2 ± 0.3 | 7.2 ± 2.5 |
| 66 nt RNA-2 (ssRNA) RNA: UCGAAUUCUUGUUCUACAUCAACACCCACACACCCAACCACUCACCCUUACACUGUACGGAUCCAG |  | 3 ± 0.1 | 5.1 ± 0.6 |
